The record followed here is patent publication US6790646B2, “Mutants of monoamine oxidase B” (Research Development Foundation, priority 1998, dated 2004).

Where only a bound is given, the exact number is not on record here.

Data set [1] concerns MAO B. The data set can be described thus: Kinetic analysis of wild-type and mutant MAO B with [14C]PEA substrate (transfected COS-7 cell homogenates). The format is biochemical, human. The note with it: PEA substrate; for Kcat / Km / Vmax: pH 7.5, 37° C., apparent, mean + S.E.M., n=3; for activity relative to wild-type: activity too low to determine kinetic parameters. As to the method: (§1) The wild-type and mutant MAO B enzymes were expressed in mammalian COS-7 cells, and the enzymatic properties of the native enzyme and its mutant enzymes were determined and compared. Wild-type and mutant MAO B cDNAs were transiently transfected into COS-7 cells by electroporation. Cells were harvested during late log phase growth and resuspended to a concentration of 3.125×10^6 cells/ml in DMEM supplemented with 10% fetal bovine serum (FBS). Fifteen μg of normal or mutant cDNA were added to 0.8 ml (2.5×10^6 cells) of cell suspension. Electroporation was carried out in a Bio-Rad Gene Pulser with a setting of 0.25 kV and 500 μF. Cells were resuspended in 15 ml of DMEM/FBS and incubated at 37° C. with 5% CO2 for 48 h.
(§2) Aliquots (20 μl) of transfected COS-7 cell homogenates were incubated for 10 min at 37° C. in the presence of various concentrations of [^14C]PEA (20 mCi/mmol) or [^14C]benzylamine (10 mCi/mmol) in 50 mM sodium phosphate buffer, pH 7.5 (200 μl total volume). Substrate concentrations ranged from 0.25-2.5 times the Km value (determined in pilot experiments) to yield 10 equally-spaced reciprocal increments. Parallel assays were carried out with untransfected COS-7 cell lysates as a control. Reactions were stopped by addition of 25 μl of 6 N HCl and the deaminated products were extracted by vortexing for 30 seconds with 500 μl of toluene or toluene:ethyl acetate (1:1) for benzylamine or PEA, respectively. Samples were processed as described previously (28). Apparent Km and Vmax values were determined by linear regression analysis of Lineweaver-Burk plots. Kcat values were calculated from the Vmax values divided by the concentration of wild-type or mutant MAO B determined in each experiment. Expression levels of wild-type or mutant MAO B were determined in triplicate for six separate experiments as follows: wild-type=11.1+2.07; F423A=9.30+1.89; E427Q=10.3+1.29; T428A=10.2+2.07; T428S=10.2+1.53 pmol MAO B/mg protein. Data are given as means +S.E.M. pmol/mg of protein determined using a subunit molecular weight of 58,800.

Data set [2] deals with MAO B. The data set can be described thus: pH profiles of wild-type and mutant MAO B enzymatic activity with [14C]benzylamine. Format: biochemical, human. The note with it: pH 6.0 to 9.0, 500 μM benzylamine. As to the method: (§3) Aliquots (20 μl) of transfected COS-7 cell homogenates were incubated for 10 min at 37° C. in the presence of 500 μM (^14C)benzylamine (2.5 mCi/mmol) in 50 mM sodium phosphate buffer, pH 6.0, 6.5, 7.0, 7.5, 8.0, 8.5 or 9.0 (200 μl total volume). Reactions were stopped by addition of 25 μl of 6 N HCl. Parallel assays were carried out with untransfected COS-7 homogenates as a control. Samples were processed as previously described (28) and the derived specific activity values (nmol/min·mg protein) were divided by wild-type or mutant MAO B concentration, determined for each experiment, to obtain enzymatic activity values (nmol/min·m g MAO B). Enzymatic activities were determined in duplicate for three separate experiments.
(§4) To examine the possibility that the mutation effects a proton-dependent step in the reaction, the enzymatic activity of the mutant and wild-type MAO B enzymes was determined at different pH values from 6.0 to 9.0 (FIG. 4).

Data set [3] has as its system MAO B. The data set can be described thus: Kinetic analysis of wild-type and mutant MAO B with [14C]benzylamine substrate (transfected COS-7 cell homogenates). The format is biochemical, human. The note with it: for Kcat / Km / Vmax: pH 7.5, 37° C., apparent, mean + S.E.M., n=3; for activity relative to wild-type: activity too low to determine kinetic parameters; for Kcat reduced by: versus wild-type. The protocol: as §1, §2

The test system of another data set is COS-7 cells. As to the kind of experiment: Expression levels of wild-type or mutant MAO B in transfected COS-7 cells. The note with it: transiently transfected COS-7 cells, triplicate, six experiments, mean + S.E.M., subunit molecular weight 58,800. As to the method: as §1, §2
Data set [4] addresses T1, MAO B (Homo sapiens, UniProt P27338, E427Q).
T1 construct: expressed in transfected cells; host or cells: COS-7
T1 sequence (P27338 2-520 E427Q): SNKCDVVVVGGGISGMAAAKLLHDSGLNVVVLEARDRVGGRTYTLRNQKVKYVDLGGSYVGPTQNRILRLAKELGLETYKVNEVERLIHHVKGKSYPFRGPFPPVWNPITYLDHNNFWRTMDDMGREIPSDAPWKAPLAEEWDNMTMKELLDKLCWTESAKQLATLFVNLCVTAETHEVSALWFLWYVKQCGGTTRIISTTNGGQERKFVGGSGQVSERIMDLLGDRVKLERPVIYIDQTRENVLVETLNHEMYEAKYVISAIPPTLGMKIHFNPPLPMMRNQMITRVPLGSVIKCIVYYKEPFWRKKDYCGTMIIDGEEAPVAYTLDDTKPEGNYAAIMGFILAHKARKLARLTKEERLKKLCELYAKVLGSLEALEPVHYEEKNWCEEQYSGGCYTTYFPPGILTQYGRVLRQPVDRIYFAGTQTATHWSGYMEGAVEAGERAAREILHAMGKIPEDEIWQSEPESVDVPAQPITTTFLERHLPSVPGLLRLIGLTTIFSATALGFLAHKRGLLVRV
The data set can be described thus: pH profiles of wild-type and mutant MAO B enzymatic activity with [14C]benzylamine. The note with it: pH 6.0 to 9.0, 500 μM benzylamine. The format is biochemical. The protocol: as §3, §4

B1: WT: wild-type human MAO B enzyme expressed from cDNA in pSVK3 in COS-7 cells (protein, UniProt P27338 2-520, looked up)
Amine oxidase …: SNKCDVVVVGGGISGMAAAKLLHDSGLNVVVLEARDRVGGRTYTLRNQKVKYVDLGGSYVGPTQNRILRLAKELGLETYKVNEVERLIHHVKGKSYPFRGPFPPVWNPITYLDHNNFWRTMDDMGREIPSDAPWKAPLAEEWDNMTMKELLDKLCWTESAKQLATLFVNLCVTAETHEVSALWFLWYVKQCGGTTRIISTTNGGQERKFVGGSGQVSERIMDLLGDRVKLERPVIYIDQTRENVLVETLNHEMYEAKYVISAIPPTLGMKIHFNPPLPMMRNQMITRVPLGSVIKCIVYYKEPFWRKKDYCGTMIIDGEEAPVAYTLDDTKPEGNYAAIMGFILAHKARKLARLTKEERLKKLCELYAKVLGSLEALEPVHYEEKNWCEEQYSGGCYTTYFPPGILTQYGRVLRQPVDRIYFAGTETATHWSGYMEGAVEAGERAAREILHAMGKIPEDEIWQSEPESVDVPAQPITTTFLERHLPSVPGLLRLIGLTTIFSATALGFLAHKRGLLVRV
For B1, in the data set on MAO B [1], the Kcat was 29.8 + 5.0 min^−1, the Km was determined as 3.38 µM and the Vmax is listed as 0.325 + 0.008 nmol/min · mg protein. In addition, the “pH profile of enzymatic activity” value in the data set with MAO B [2] is listed as “characteristic increase in activity with increasing pH”. Also, in the data set with MAO B [3], the Kcat is listed as 83.0 + 14.4 min^−1, the Michaelis-Menten constant (Km) was 19.3 µM and the Vmax was 0.879 + 0.19 nmol/min · mg protein. For the same molecule, the Expression level in the data set on COS-7 cells is listed as 11.1+2.07 pmol MAO B/mg protein.

B2: E427 Q: human MAO B mutant, Glu427 changed to Gln (protein, UniProt P27338 2-520, looked up, variant E427Q)
Amine oxidase …: SNKCDVVVVGGGISGMAAAKLLHDSGLNVVVLEARDRVGGRTYTLRNQKVKYVDLGGSYVGPTQNRILRLAKELGLETYKVNEVERLIHHVKGKSYPFRGPFPPVWNPITYLDHNNFWRTMDDMGREIPSDAPWKAPLAEEWDNMTMKELLDKLCWTESAKQLATLFVNLCVTAETHEVSALWFLWYVKQCGGTTRIISTTNGGQERKFVGGSGQVSERIMDLLGDRVKLERPVIYIDQTRENVLVETLNHEMYEAKYVISAIPPTLGMKIHFNPPLPMMRNQMITRVPLGSVIKCIVYYKEPFWRKKDYCGTMIIDGEEAPVAYTLDDTKPEGNYAAIMGFILAHKARKLARLTKEERLKKLCELYAKVLGSLEALEPVHYEEKNWCEEQYSGGCYTTYFPPGILTQYGRVLRQPVDRIYFAGTQTATHWSGYMEGAVEAGERAAREILHAMGKIPEDEIWQSEPESVDVPAQPITTTFLERHLPSVPGLLRLIGLTTIFSATALGFLAHKRGLLVRV
On to B2, for which the “activity relative to wild-type” value with MAO B [1] is reported as “(<5% wt)”; with MAO B [1] (listed as E427Q), below 5 % wt; with MAO B [4], < 5 % of wild-type; in the data set with MAO B [3] it was “(<5% wt)”; in the data set on MAO B [3] (listed as E427Q), below 5 % wt. In the data set with MAO B [2], the “pH profile of enzymatic activity” value is “essentially independent of pH”. Besides, in the data set on COS-7 cells, the Expression level was 10.3+1.29 pmol MAO B/mg protein.

B3: T428 S: human MAO B mutant, Thr428 changed to Ser (protein, UniProt P27338 2-520, looked up, variant T428S)
Amine oxidase …: SNKCDVVVVGGGISGMAAAKLLHDSGLNVVVLEARDRVGGRTYTLRNQKVKYVDLGGSYVGPTQNRILRLAKELGLETYKVNEVERLIHHVKGKSYPFRGPFPPVWNPITYLDHNNFWRTMDDMGREIPSDAPWKAPLAEEWDNMTMKELLDKLCWTESAKQLATLFVNLCVTAETHEVSALWFLWYVKQCGGTTRIISTTNGGQERKFVGGSGQVSERIMDLLGDRVKLERPVIYIDQTRENVLVETLNHEMYEAKYVISAIPPTLGMKIHFNPPLPMMRNQMITRVPLGSVIKCIVYYKEPFWRKKDYCGTMIIDGEEAPVAYTLDDTKPEGNYAAIMGFILAHKARKLARLTKEERLKKLCELYAKVLGSLEALEPVHYEEKNWCEEQYSGGCYTTYFPPGILTQYGRVLRQPVDRIYFAGTESATHWSGYMEGAVEAGERAAREILHAMGKIPEDEIWQSEPESVDVPAQPITTTFLERHLPSVPGLLRLIGLTTIFSATALGFLAHKRGLLVRV
In the case of B3, in the data set on MAO B [1], the “Kcat relative to wild-type (reduction)” value was ~50 % of wild-type, the Kcat is listed as 14.5 + 2.0 min^−1, the Km came out at 11.6 µM and the Vmax is listed as 0.162 + 0.22 nmol/min · mg protein. Further, in the data set with MAO B [3], the “Km compared with wild-type” value is listed as “approximately equal to wild-type”, the Kcat was 27.2 + 5.8 min^−1, the Michaelis constant (Km) was 5.4 µM and the Vmax is reported as 0.236 + 0.05 nmol/min · mg protein. Moreover, the “Kcat reduced by” value in the data set with MAO B [3] worked out at 67%. In addition, in the data set with COS-7 cells, the Expression level was 10.2+1.53 pmol MAO B/mg protein.

B4: T428 A: human MAO B mutant, Thr428 changed to Ala (protein, UniProt P27338 2-520, looked up, variant T428A)
Amine oxidase …: SNKCDVVVVGGGISGMAAAKLLHDSGLNVVVLEARDRVGGRTYTLRNQKVKYVDLGGSYVGPTQNRILRLAKELGLETYKVNEVERLIHHVKGKSYPFRGPFPPVWNPITYLDHNNFWRTMDDMGREIPSDAPWKAPLAEEWDNMTMKELLDKLCWTESAKQLATLFVNLCVTAETHEVSALWFLWYVKQCGGTTRIISTTNGGQERKFVGGSGQVSERIMDLLGDRVKLERPVIYIDQTRENVLVETLNHEMYEAKYVISAIPPTLGMKIHFNPPLPMMRNQMITRVPLGSVIKCIVYYKEPFWRKKDYCGTMIIDGEEAPVAYTLDDTKPEGNYAAIMGFILAHKARKLARLTKEERLKKLCELYAKVLGSLEALEPVHYEEKNWCEEQYSGGCYTTYFPPGILTQYGRVLRQPVDRIYFAGTEAATHWSGYMEGAVEAGERAAREILHAMGKIPEDEIWQSEPESVDVPAQPITTTFLERHLPSVPGLLRLIGLTTIFSATALGFLAHKRGLLVRV
Consider B4, for which, in the data set with MAO B [1], the “Kcat relative to wild-type (reduction)” value is reported as ~50 % of wild-type, the Kcat is given as 14.3 + 2.6 min^−1, the Km was 11.1 µM and the Vmax is 0.161 + 0.039 nmol/min · mg protein. In the data set with MAO B [3], the “Km compared with wild-type” value is on record as “approximately equal to wild-type”, the Kcat is given as 46.2 + 19.1 min^−1, the Km amounted to 18.6 µM and the Vmax was 0.374 + 0.06 nmol/min · mg protein. Further, in the data set with MAO B [3], the “Kcat reduced by” value turned out to be 44%. Besides, the Expression level in the data set with COS-7 cells was 10.2+2.07 pmol MAO B/mg protein.

Usually Km stands for the concentration of substrate that gives half-maximal velocity.
